Here are results for six molecules from patent US12698507B2, “Methods and compositions for conferring and/or enhancing herbicide tolerance using protoporphyrinogen IX oxidase of various cyanobacteria or variant thereof” (FarmHannong Co., Ltd., priority 2019, dated 2026).

Where a chain is given by its changes, count along the chain named. Numbers in names are those of the source.

Test [1] addresses Thermosynechococcus elongatus PKUAC-SCTE542 protoporphyrinogen IX oxidase CyPPO19 (SEQ ID NO: 1) variant V305L (MBP fusion) (Thermosynechococcus sichuanensis, UniProt A0A7D6JSC1, V305L). The experiment in a line: PPO enzyme inhibition assay (IC50 for herbicides), CyPPO19 V305L fused to MBP. It counts as biochemical.
Test [2] deals with Thermosynechococcus elongatus PKUAC-SCTE542 protoporphyrinogen IX oxidase CyPPO19 (SEQ ID NO: 1) variant V165S (MBP fusion) (Thermosynechococcus sichuanensis, UniProt A0A7D6JSC1, V165S). The experiment in a line: biochemical. The following applies: 50 μM protoporphyrinogen IX, pH 7.5, room temperature, 30 min, 10,000 means equivalent to or higher, read-out: IC50.
For test [3], the target named is Thermosynechococcus elongatus PKUAC-SCTE542 protoporphyrinogen IX oxidase CyPPO19 (SEQ ID NO: 1) variant A167I (MBP fusion) (Thermosynechococcus sichuanensis, UniProt A0A7D6JSC1, A167I). As to the kind of experiment: biochemical. The following applies: 50 μM protoporphyrinogen IX, pH 7.5, room temperature, 30 min, 10,000 means equivalent to or higher, read-out: IC50.

Test [4] has as its target Thermosynechococcus elongatus PKUAC-SCTE542 protoporphyrinogen IX oxidase CyPPO19 (SEQ ID NO: 1) variant V165C (MBP fusion) (Thermosynechococcus sichuanensis, UniProt A0A7D6JSC1, V165C). As to the kind of experiment: PPO enzyme inhibition assay (IC50 for herbicides), CyPPO19 V165C fused to MBP. It counts as biochemical.
The target of test [5] is Thermosynechococcus elongatus PKUAC-SCTE542 protoporphyrinogen IX oxidase CyPPO19 (SEQ ID NO: 1) variant V305M (MBP fusion) (Thermosynechococcus sichuanensis, UniProt A0A7D6JSC1, V305M). As to the kind of experiment: PPO enzyme inhibition assay (IC50 for herbicides), CyPPO19 V305M fused to MBP. It counts as biochemical.
For test [6], the target named is Thermosynechococcus elongatus PKUAC-SCTE542 protoporphyrinogen IX oxidase CyPPO19 (SEQ ID NO: 1) variant A167C (MBP fusion) (Thermosynechococcus sichuanensis, UniProt A0A7D6JSC1, A167C). As to the kind of experiment: biochemical.
Test [7] addresses Thermosynechococcus elongatus PKUAC-SCTE542 protoporphyrinogen IX oxidase CyPPO19 (SEQ ID NO: 1) variant R89A (MBP fusion) (Thermosynechococcus sichuanensis, UniProt A0A7D6JSC1, R89A). As to the kind of experiment: biochemical.
In test [8] the target is T1, Thermosynechococcus elongatus PKUAC-SCTE542 protoporphyrinogen IX oxidase CyPPO19, wild type, SEQ ID NO: 1 (MBP fusion) (Thermosynechococcus sichuanensis, UniProt A0A7D6JSC1).
T1 sequence (A0A7D6JSC1 1-467): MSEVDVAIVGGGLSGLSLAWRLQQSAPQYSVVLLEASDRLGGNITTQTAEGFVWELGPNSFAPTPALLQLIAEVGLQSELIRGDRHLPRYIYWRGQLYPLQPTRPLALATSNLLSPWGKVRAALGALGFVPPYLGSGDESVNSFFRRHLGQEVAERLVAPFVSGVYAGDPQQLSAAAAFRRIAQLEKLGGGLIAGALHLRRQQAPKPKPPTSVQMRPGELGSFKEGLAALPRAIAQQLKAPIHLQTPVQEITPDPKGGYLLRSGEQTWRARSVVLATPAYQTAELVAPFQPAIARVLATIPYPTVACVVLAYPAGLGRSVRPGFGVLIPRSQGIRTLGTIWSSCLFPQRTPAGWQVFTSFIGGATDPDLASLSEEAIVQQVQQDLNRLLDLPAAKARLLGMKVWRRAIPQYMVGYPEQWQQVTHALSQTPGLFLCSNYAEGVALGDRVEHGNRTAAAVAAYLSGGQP
The experiment in a line: PPO enzyme inhibition assay (IC50 for herbicides), CyPPO19 wild type fused to MBP. It counts as biochemical.

In test [9] the target is Thermosynechococcus elongatus PKUAC-SCTE542 protoporphyrinogen IX oxidase CyPPO19 (SEQ ID NO: 1) variant A167L (MBP fusion) (Thermosynechococcus sichuanensis, UniProt A0A7D6JSC1, A167L). As to the kind of experiment: biochemical. The following applies: 50 μM protoporphyrinogen IX, pH 7.5, room temperature, 30 min, 10,000 means equivalent to or higher, read-out: IC50.
For a further test, the system named is A. thaliana. As to the kind of experiment: PPO-inhibiting herbicide tolerance test of transgenic A. thaliana (herbicide spray, injury index). It counts as in vivo, Arabidopsis thaliana. The following applies: transgenic A. thaliana (T2), tiafenacil or flumioxazin spray.
In test [10] the test system is PPO-deficient BT3 E. coli (ΔPPO). As to the kind of experiment: PPO-inhibiting herbicide tolerance test of PPO variants in E. coli (growth on herbicide-containing LB agar). The following applies: LB agar with 0 to 2,000 μM herbicide, 37° C., dark, 16-20 hours. The format is cell-based. The essentials:
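Transformants were grown to OD600 0.5–1, adjusted to OD600=0.5 and spotted as 10-fold dilutions on LB agar with ampicillin (100 μg/mL) and 0 to 2,000 μM herbicide. Plates were kept at 37° C in the dark for 16-20 hours; growth was scored relative to wild type, one '+' per 10-fold resistance.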

[11] abbreviates: CyPPO18 variants in BT3 (ΔPPO) E. coli.
Setting [12] is: CyPPO19 variants in BT3 (ΔPPO) E. coli.

Sequence of Thermosynechococcus elongatus PKUAC-SCTE542 protoporphyrinogen IX oxidase CyPPO19 (SEQ ID NO: 1) variant V305L (MBP fusion) (A0A7D6JSC1 entry or part of it V305L): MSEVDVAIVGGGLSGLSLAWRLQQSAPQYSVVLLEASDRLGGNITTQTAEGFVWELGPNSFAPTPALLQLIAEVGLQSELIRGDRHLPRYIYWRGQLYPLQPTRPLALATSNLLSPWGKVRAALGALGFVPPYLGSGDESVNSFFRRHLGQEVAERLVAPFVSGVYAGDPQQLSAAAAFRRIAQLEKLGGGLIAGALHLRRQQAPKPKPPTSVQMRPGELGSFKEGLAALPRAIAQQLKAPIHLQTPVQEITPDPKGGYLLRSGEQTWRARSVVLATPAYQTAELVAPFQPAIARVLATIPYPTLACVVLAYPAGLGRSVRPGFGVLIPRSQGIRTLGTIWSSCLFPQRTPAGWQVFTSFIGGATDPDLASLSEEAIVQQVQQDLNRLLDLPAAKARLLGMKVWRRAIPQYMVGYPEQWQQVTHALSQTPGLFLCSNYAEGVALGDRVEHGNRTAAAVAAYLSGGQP
Sequence of Thermosynechococcus elongatus PKUAC-SCTE542 protoporphyrinogen IX oxidase CyPPO19 (SEQ ID NO: 1) variant V305M (MBP fusion) (A0A7D6JSC1 entry or part of it V305M): as the sequence (A0A7D6JSC1 entry or part of it V305L) above, with L305M counted along it
Sequence of Thermosynechococcus elongatus PKUAC-SCTE542 protoporphyrinogen IX oxidase CyPPO19 (SEQ ID NO: 1) variant A167L (MBP fusion) (A0A7D6JSC1 entry or part of it A167L): as the sequence (A0A7D6JSC1 entry or part of it V305L) above, with A167L, L305V counted along it
Sequence of Thermosynechococcus elongatus PKUAC-SCTE542 protoporphyrinogen IX oxidase CyPPO19 (SEQ ID NO: 1) variant R89A (MBP fusion) (A0A7D6JSC1 entry or part of it R89A): as the sequence (A0A7D6JSC1 entry or part of it V305L) above, with R89A, L305V counted along it
Sequence of Thermosynechococcus elongatus PKUAC-SCTE542 protoporphyrinogen IX oxidase CyPPO19 (SEQ ID NO: 1) variant V165S (MBP fusion) (A0A7D6JSC1 entry or part of it V165S): as the sequence (A0A7D6JSC1 entry or part of it V305L) above, with V165S, L305V counted along it
Sequence of Thermosynechococcus elongatus PKUAC-SCTE542 protoporphyrinogen IX oxidase CyPPO19 (SEQ ID NO: 1) variant A167I (MBP fusion) (A0A7D6JSC1 entry or part of it A167I): as the sequence (A0A7D6JSC1 entry or part of it V305L) above, with A167I, L305V counted along it
Sequence of Thermosynechococcus elongatus PKUAC-SCTE542 protoporphyrinogen IX oxidase CyPPO19 (SEQ ID NO: 1) variant V165C (MBP fusion) (A0A7D6JSC1 entry or part of it V165C): as the sequence (A0A7D6JSC1 entry or part of it V305L) above, with V165C, L305V counted along it
Sequence of Thermosynechococcus elongatus PKUAC-SCTE542 protoporphyrinogen IX oxidase CyPPO19 (SEQ ID NO: 1) variant A167C (MBP fusion) (A0A7D6JSC1 entry or part of it A167C): as the sequence (A0A7D6JSC1 entry or part of it V305L) above, with A167C, L305V counted along it

What is called IC50 is the concentration that gives 50% inhibition. In the case of `CS(=O)(=O)NC(=O)c1cc(Oc2ccc(C(F)(F)F)cc2Cl)ccc1[N+](=O)[O-]` [Fomesafen], the IC50 in [1] came out at 466 nM; in [2], 348 nM; in [3] it was 899 nM; in test [4] it was 330 nM; in test [5] it was 257 nM; in test [6], 843 nM. The IC50 in test [7] was found to be 2360 nM; in test [8] it was 242 nM; in [9], 1760 nM.

B1: CyPPO18 WT: PPO protein derived from Thermosynechococcus vulcanus NIES-2134 strain, SEQ ID NO: 3 (protein)
chain: MIEVDVAIVGGGLSGLSVAWRLQRSAPHYSGVLLEASDRLGGNITTQAAEGFVWELGPNSFAPTPALLQLIAEVGLHSELIRGDRHLPRYIYWRGELYPLEPTRPLALATSNLLSPWGKVRAALGALGFVPPYLGSGDESVDSFFRRHLGQEVAERLVAPFVSGVYAGDPQQLSAAAAFRRIAQLEKLGGSLIAGALRLRRQQPPQPKPPAQVQMRPGELGSFREGLAALPRAIAQQLKAPLHLQTPVEAITPEPKGGYLLRSGEQTWHARSVVLATPAYQSAELVAPFQPAIARALATIPYPTVACVVLAYPAGLGRSVRPGFGVLVPRGQGIRTLGTIWSSCLFPQRTPAGWQVFTSFIGGATDPDLASLREEAIVEQVQQDLTRLLDLPAAKARLLGMKVWRRAIPQYIVGYPQQWQQLTHALTQTPGLFLCSNYAEGVALGDRVEHGNRTAAAVAAYLAGGQS
modifications: Synthetic_PPO of Thermosynechococcus vulcanus NIES-2134 (BAY51976)
On to B1, for which the “herbicide tolerance compared to non-transgenic plants” value in the test on A. thaliana was “increased herbicide tolerance”.

B2: CyPPO18 R89A + V165C + A167L + V305M + F360I: variant of CyPPO18 PPO protein (SEQ ID NO: 3) (protein)
chain: B1 chain with R89A, V165C, A167L, V305M, F360I
modifications: Synthetic_PPO of Thermosynechococcus vulcanus NIES-2134 (BAY51976)
Turning to B2, in test [10] (setting [11]), the “tolerance level relative to wild type, Carfentrazone” value is recorded as “++ (‘+’ per each 10-fold resistance)”; the “tolerance level relative to wild type, Flumioxazin” value is on record as “+++++ (until ‘+++++’ as maximal resistance)”; the “tolerance level relative to wild type, Fomesafen” value is “+++++ (until ‘+++++’ as maximal resistance)”; the “tolerance level relative to wild type, Oxyfluorfen” value was “++ (‘+’ per each 10-fold resistance)”. In addition, in test [10] (setting [11]), the “tolerance level relative to wild type, Saflufenacil” value is given as “+++++ (until ‘+++++’ as maximal resistance)”; the “tolerance level relative to wild type, Sulfentrazone” value was “+++++ (until ‘+++++’ as maximal resistance)”; the “tolerance level relative to wild type, Tiafenacil” value was “+++++ (until ‘+++++’ as maximal resistance)”.

B3: CyPPO18 R89A + V165S + V305M + F360I: variant of CyPPO18 PPO protein (SEQ ID NO: 3) (protein)
chain: B1 chain with R89A, V165S, V305M, F360I
modifications: Synthetic_PPO of Thermosynechococcus vulcanus NIES-2134 (BAY51976)
Regarding B3, in [10] (setting [11]), the “tolerance level relative to wild type, Carfentrazone” value is listed as “++ (‘+’ per each 10-fold resistance)”; the “tolerance level relative to wild type, Flumioxazin” value is recorded as “+++++ (until ‘+++++’ as maximal resistance)”; the “tolerance level relative to wild type, Fomesafen” value is given as “+++++ (until ‘+++++’ as maximal resistance)”; the “tolerance level relative to wild type, Oxyfluorfen” value is “++ (‘+’ per each 10-fold resistance)”. Also, in test [10] (setting [11]), the “tolerance level relative to wild type, Saflufenacil” value was “+++++ (until ‘+++++’ as maximal resistance)”; the “tolerance level relative to wild type, Sulfentrazone” value was “+++++ (until ‘+++++’ as maximal resistance)”; the “tolerance level relative to wild type, Tiafenacil” value is “+++++ (until ‘+++++’ as maximal resistance)”.

B4: CyPPO19 WT: PPO protein derived from Thermosynechococcus elongatus PKUAC-SCTE542 strain, SEQ ID NO: 1 (protein)
chain: T1 sequence (A0A7D6JSC1 1-467)
modifications: Synthetic_PPO of Thermosynechococcus elongatus PKUAC-SCTE542 (comprising GenBank No. CP032152.1)
Consider B4, for which the “herbicide tolerance compared to non-transgenic plants” value with A. thaliana is reported as “increased herbicide tolerance”.

B5: CyPPO19 R89A + V305M + F360V: variant of CyPPO19 PPO protein (SEQ ID NO: 1) (protein)
chain: T1 sequence (A0A7D6JSC1 1-467) with R89A, V305M, F360V
modifications: Synthetic_PPO of Thermosynechococcus elongatus PKUAC-SCTE542 (comprising GenBank No. CP032152.1)
Turning to B5, in [10] (setting [12]), the “tolerance level relative to wild type, Carfentrazone” value is “+ (‘+’ per each 10-fold resistance)”; the “tolerance level relative to wild type, Flumioxazin” value is reported as “+++ (‘+’ per each 10-fold resistance)”; the “tolerance level relative to wild type, Fomesafen” value was “+ (‘+’ per each 10-fold resistance)”; the “tolerance level relative to wild type, Oxyfluorfen” value was “+ (‘+’ per each 10-fold resistance)”. For the same molecule, in test [10] (setting [12]), the “tolerance level relative to wild type, Saflufenacil” value was “+++ (‘+’ per each 10-fold resistance)”; the “tolerance level relative to wild type, Sulfentrazone” value is “++ (‘+’ per each 10-fold resistance)”; the “tolerance level relative to wild type, Tiafenacil” value is “+++ (‘+’ per each 10-fold resistance)”.
